The values that follow come from patent US20050054575A1 (US Dept. of Health and Human Services, published 2005).

In experiment [1] the target is T1, HLA-A2 (human).
T1 construct: whole, on cells; also called HLA-A2.1; MHC-class I A2
Put plainly: flow cytometry of HLA-A2 on T2A2 cells, peptide 0 to 50 µg/ml. As for the experimental part: (§1) Peptide Binding to HLA-A2. […] Briefly, 1×10⁶ cells in serum-free Iscove's modified Dulbecco's complete medium were incubated with peptides at a concentration of 50 μg/ml in 24 well culture plates at 37° C. in 5% CO₂. Flow cytometry for peptide binding was performed using T2 cells and single-color analysis. After cells were washed three times in DPBS, as described above, they were incubated for 1 h with HLA-A2 specific MAb (One Lambda, Inc.) using […] of a 1× working dilution per 10⁶ cells. UPC-10 (Cappel/Organon Teknika) was used as isotype control. The cells were washed three times and incubated with 1:100 dilution of FITC-labeled anti-mouse IgG (Becton Dickinson). Analysis was conducted with the FACScan, as described above. Cells were maintained on ice during all cell preparation and staining.
For orientation: In flow cytometry, cells or beads pass a laser one at a time.

In experiment [2] the target is T1, HLA-A2. The experiment is described as follows: flow cytometry of HLA-A2 on peptide-loaded T2A2 cells. Here is the method: as §1
Experiment [3] concerns the target T1, HLA-A2. The experiment is described as follows: flow cytometry of HLA-A2 on T2A2 cells. As for the experimental part: as §1

B1: PSA-3 (L-155) also called PSA-3A (peptide)
peptide: VLSNDVCAQV
notes: Synthetic analog peptide; also called agonist peptide PSA-3A
Consider B1, for which the binding result with HLA-A2 [1] is given as “binds”. With VISNDVCAQL (Synthetic analog peptide) [PSA-3 (L-163)], the binding result in the experiment with HLA-A2 [2] is recorded as “no binding (tested: 0 to 50 µg/ml)”.

B2: PSA-3 (Y-154/L-155) (peptide)
peptide: YLSNDVCAQV
notes: Synthetic analog peptide; also called PSA-3 (L155/Y154)
As for B2, the binding result with HLA-A2 [3] is “binds”. Turning to YISNDVCAQV (Synthetic analog peptide) [PSA-3 (Y-154)], the binding result with HLA-A2 [3] is “binds”.
